The values that follow come from the supplement of paper PMC6379048.

Common to all, as to assay: EC50 of free RNA motif oligo competing protein binding to immobilised probe
Data set [1] deals with RPL7 (UniProt P18124). A digest of the protocol:
(§1)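 Kd was calculated as EC50, taken from a four-parameter log-logistic fit, multiplied by a protein-dependent depletion factor. The assay used HEK293-FT lysate (2.5 mg protein/well) pre-incubated for 1 h at 4°C with free RNA oligos (0 nM to 30 μM), then incubated for 30 min at 4°C with the matching oligos bound through a 5′-amino-C6 linker to NHS-Sepharose beads. Bound proteins were measured by label-free LC-MS/MS and normalised to the control.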

The target of data set [2] is PIP5K1A (UniProt Q99755). Summed up:
as §1

Data set [3] addresses RPS12 (UniProt P25398). A digest of the protocol:
as §1

The target of data set [4] is T1, DHX30 (UniProt Q7L2E3).
T1 sequence: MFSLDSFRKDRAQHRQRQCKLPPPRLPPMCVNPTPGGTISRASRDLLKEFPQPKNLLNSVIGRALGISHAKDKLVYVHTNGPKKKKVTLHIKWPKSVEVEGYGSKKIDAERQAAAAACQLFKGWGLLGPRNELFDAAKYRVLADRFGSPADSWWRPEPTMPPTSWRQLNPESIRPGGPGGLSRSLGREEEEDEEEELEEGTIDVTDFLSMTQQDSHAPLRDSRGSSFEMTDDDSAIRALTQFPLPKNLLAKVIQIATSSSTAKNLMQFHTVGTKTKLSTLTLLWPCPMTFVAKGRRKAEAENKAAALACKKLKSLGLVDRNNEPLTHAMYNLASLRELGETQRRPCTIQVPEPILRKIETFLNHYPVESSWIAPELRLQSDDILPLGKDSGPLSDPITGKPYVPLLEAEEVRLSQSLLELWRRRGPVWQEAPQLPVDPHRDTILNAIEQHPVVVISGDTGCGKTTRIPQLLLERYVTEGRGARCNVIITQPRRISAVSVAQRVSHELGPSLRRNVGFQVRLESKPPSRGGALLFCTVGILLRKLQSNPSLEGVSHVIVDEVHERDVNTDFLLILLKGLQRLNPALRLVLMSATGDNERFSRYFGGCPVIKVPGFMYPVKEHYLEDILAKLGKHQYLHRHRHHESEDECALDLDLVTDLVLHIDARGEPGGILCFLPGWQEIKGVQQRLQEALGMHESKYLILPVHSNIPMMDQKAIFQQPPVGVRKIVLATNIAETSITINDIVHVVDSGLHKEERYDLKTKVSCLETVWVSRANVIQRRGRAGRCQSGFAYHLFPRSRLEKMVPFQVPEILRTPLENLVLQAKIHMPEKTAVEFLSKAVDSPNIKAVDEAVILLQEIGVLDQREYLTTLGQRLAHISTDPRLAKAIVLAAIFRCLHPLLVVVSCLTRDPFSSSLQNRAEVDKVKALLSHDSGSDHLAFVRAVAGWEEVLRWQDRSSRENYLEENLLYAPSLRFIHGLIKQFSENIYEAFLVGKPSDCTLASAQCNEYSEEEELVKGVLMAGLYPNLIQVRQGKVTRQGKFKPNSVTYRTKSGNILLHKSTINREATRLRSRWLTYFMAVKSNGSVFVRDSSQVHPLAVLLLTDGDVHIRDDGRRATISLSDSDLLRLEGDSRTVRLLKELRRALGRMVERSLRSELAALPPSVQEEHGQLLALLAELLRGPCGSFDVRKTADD
A digest of the protocol: as §1

Data set [5] deals with HNRNPA1 (UniProt P09651). A digest of the protocol: as §1
Data set [6] concerns the target T2, MEX3D (UniProt Q86XN8).
T2 sequence: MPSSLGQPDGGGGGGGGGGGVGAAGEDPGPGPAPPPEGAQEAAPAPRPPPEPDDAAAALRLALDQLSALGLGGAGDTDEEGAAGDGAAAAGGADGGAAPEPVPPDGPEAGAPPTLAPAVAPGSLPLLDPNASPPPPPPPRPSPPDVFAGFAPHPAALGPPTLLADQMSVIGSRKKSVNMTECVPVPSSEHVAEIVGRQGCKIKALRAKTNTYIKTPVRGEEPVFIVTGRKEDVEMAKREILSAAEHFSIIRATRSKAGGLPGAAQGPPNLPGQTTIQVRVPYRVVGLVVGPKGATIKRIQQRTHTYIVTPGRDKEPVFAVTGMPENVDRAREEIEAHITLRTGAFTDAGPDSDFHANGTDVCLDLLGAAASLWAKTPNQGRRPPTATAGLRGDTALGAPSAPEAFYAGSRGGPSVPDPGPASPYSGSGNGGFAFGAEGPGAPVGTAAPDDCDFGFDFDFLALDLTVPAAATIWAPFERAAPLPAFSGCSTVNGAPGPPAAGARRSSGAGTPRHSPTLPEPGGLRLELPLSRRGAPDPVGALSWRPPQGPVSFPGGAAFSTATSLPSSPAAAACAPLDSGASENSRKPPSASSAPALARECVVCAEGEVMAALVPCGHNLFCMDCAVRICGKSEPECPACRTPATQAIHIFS
A digest of the protocol:
as §1

HNRNPA1, sequence (P09651 whole entry): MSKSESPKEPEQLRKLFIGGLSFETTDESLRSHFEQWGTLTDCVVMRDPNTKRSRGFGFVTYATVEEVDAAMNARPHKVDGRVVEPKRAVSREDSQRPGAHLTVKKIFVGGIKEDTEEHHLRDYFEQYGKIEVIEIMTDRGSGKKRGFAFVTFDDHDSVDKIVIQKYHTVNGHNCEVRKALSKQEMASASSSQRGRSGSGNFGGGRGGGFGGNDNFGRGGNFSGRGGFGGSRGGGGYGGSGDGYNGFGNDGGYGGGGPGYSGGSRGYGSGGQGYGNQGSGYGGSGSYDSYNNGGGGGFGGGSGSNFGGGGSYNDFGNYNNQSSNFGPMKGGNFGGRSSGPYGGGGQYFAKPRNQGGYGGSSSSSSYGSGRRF
PIP5K1A, sequence (Q99755 whole entry): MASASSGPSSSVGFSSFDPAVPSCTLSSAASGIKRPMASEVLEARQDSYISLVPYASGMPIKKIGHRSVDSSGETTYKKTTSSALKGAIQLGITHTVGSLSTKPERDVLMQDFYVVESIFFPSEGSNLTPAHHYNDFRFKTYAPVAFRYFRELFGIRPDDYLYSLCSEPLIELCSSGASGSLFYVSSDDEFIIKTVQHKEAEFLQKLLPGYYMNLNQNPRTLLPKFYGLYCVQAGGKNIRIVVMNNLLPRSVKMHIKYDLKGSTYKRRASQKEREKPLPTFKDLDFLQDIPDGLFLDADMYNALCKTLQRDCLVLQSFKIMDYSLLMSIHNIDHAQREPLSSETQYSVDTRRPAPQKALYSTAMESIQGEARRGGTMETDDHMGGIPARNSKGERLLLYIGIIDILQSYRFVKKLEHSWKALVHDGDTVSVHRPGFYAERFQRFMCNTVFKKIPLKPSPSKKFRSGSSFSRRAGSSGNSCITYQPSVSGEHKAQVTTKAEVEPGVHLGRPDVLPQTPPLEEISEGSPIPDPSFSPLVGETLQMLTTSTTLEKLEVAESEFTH

For orientation: EC50 means the concentration at which the effect is half-maximal. For the sequence AAUAAA, the EC50 in data set [1] was 6980 nM; in data set [2], 2250 nM.
Consider CUGUCCU, for which the EC50 is 392 nM in data set [3] and 113 nM in data set [4].
As to UAUUUAU, the EC50 in data set [5] came out at 2950 nM; in data set [6], 714 nM.
